Source: patent US8871276B2, “Beta-casein assemblies for mucosal delivery of therapeutic bioactive agents” (Technion Research and Development Foundation Ltd., priority 2008, dated 2014)

Legend:
[1] = Small angle X-ray scattering (SAXS) of micelles; type: physicochemical
Method: The small angle X-ray scattering equipment consisted of a SAXSess camera (Anton-Paar, Graz, Austria) connected to an X-ray generator (Philips, PW 1730/10) operating at 40 kV and 50 mA with a sealed-tube Cu anode. A Gael mirror was used to convert the divergent polychromatic X-ray beam into a focused line-shaped beam of Cu Kα radiation (λ=0.154 nm). The 2D scattering pattern was recorded by a PI-SCX fused fiber optic taper CCD camera from Princeton Instruments, which is a division of Roper Scientific, Inc. (Trenton, N.J., USA). The used CCD detector features a 2084×2084 array with 24×24 μm pixel size (chip size: 50×50 mm). The CCD was operated at −30° C. with 10° C. water-assisted cooling to reduce the thermally generated charge. Cosmic ray correction and background subtraction were performed on the 2D image before further data processing. The 2D image was integrated into the one-dimensional scattering function within a band of 10 mm. The measurement time was 30 min for each scattering curve (6 images of 5 minutes were taken to assist the cosmic ray correction).
The molecular weight of the scattering aggregates were calculated according to Eq. 1:
[formula] where M is the molecular weight, dΣ(0)/dΩ (cm^−1) the forward scattering intensity at q=0, c (g/cm^3) the β-casein concentration, NA the Avogadro number, and ΔρM (cm/g) the scattering length difference per mass, given by: ΔρM=Δρ ν (2)
The scattering length difference Δρ (cm^−2) was calculated using the known chemical composition of the protein and the solvent, and ν (cm^3/g), the specific volume of the protein in the solution that was calculated via density measurement of the solvent and the solution. The micelle aggregation number was then calculated by dividing the molecular weight of the micelles determined with Eq. 1, by the molecular weight of a single protein molecule.
For a particle of arbitrary shape with a scattering density difference of Δρ(r), the pair distance distribution function p(r) (PDDF) is given by: p(r)=r^2Δ ρ^2(r) (3) where Δ ρ^2(r) is the convolution square of Δρ(r) averaged for all directions in space. The PDDF is related to the scattered intensity l(q) by a Fourier transformation, and it enables the determination of the overall shape and size of the scattering objects.
[formula] λ is the wavelength of the incident radiation and θ is the angle between the scattered and incident beam. The function ƒ(r)=p(r)/r (6) is useful to identify flat plate-like particles, although it has no direct physical meaning. For lamellae, this function starts with a linearly increasing part and becomes almost flat when r is equal to the thickness of the lamella. For flat particles with a finite base area, the outer part decreases linearly because of boundary losses. The thickness of the lamella can then be read from the transition point.
The structural characteristics of the micelles in the two pH environments were studied by cryo-TEM and SAXS (Small Angle X-ray Scattering). Cryo-TEM was used to determine the shape of the micelles and to estimate their dimensions between 4 and 40° C. This information was further used to accurately calculate the micelles' dimensions from the SAXS data, and to study how the size and shape are affected by temperature. SAXS measurements also provided the critical micelle concentration (CMC) and the micelle aggregation numbers as a function of temperature. Experiments were performed in the concentration range of 0.1-40 mg/mL protein, at low pH (between 2.1 and 2.6) in dilute lactic acid solution (6 wt %) or HCl and in aqueous solutions at pH 6.7-7.3 in absence of salts or the presence of up to 0.1M NaCl.
SAXS measurements were used to determine the shape and dimensions of the micelles at low pH more precisely, and to evaluate the micelle molecular weight (i.e., the aggregation number). The scattering curves of 20 mg/mL β-casein in lactic acid solution (pH 2.6, IS 0.0022) at different temperatures are shown in FIG. 3a. […]

[2] = Isothermal titration calorimetry (ITC) of β-casein micellization; type: physicochemical
Method: […] The reaction cell (V=1.43 mL) was filled with degassed solvent (lactic acid at pH 2.6, or phosphate buffer at pH 7.0). The injector-stirrer syringe (289 μL) was loaded with a β-casein micellar solution (20 mg/mL). The micellar solution was injected into the reaction cell in 28 steps of 10 μL aliquots each, and the heat flow was measured. During the titration, the stirring speed was 310 rpm. The duration of each injection was 20 s, and the equilibration time between consecutive injections was 3 min. Such an interval was sufficient to equilibrate the reaction cell after every injection. Each experiment was performed at least three times. Calorimetric data analysis was carried out using Origin 5.0 software (MicroCal).
β-casein micellar solution was titrated into lactic acid buffer (pH 2.6) placed in the ITC cell, and the heat flow was measured as a function of time (FIG. 6A). Three factors contribute to the exothermic enthalpy changes observed at the initial injections: micelle dilution, demicellization, and dilution of individual β-casein molecules. The enthalpy changes decrease in magnitude as more protein is added and the concentration in the ITC cell increases. Eventually, the concentration in the cell exceeds the CMC and only micelle dilution contributes to the heat flow. In FIG. 6B the heat of the reaction, obtained by integrating the peaks of the individual injections given in FIG. 6A, is plotted against the β-casein concentration in the cell. A slow increase in the reaction enthalpy was observed, resulting in micellixation relative cooperativity (MR) of 0.14 mM (FIG. 6b), which is more than twice than the value found at pH 7.0 and IS of 0.1. FIG. 6B also presents the heat of demicellization, ΔHdemic, which equals the enthalpy difference between the two asymptotes of the sigmoid fit of the experimental data (obtained by using the Origin software). It is shown that at 24° C. ΔHdemic is ≦17.9 kJ/mol, relatively small compared with the −40.53 kJ/mol found at pH 7.0 and IS of 0.1. […] This value is approximately twice the CMC found at pH 7 and ionic strength 0.1. The small ΔHdemic, the high CMC, and the large MR indicate that the driving forces for micellization under acidic conditions are reduced compared with those at physiological pH and high IS.

[3] = 1 wt % β-casein, empty or loaded 1:8 protein:celecoxib, pH ~7

B1: β-casein: bovine β-casein self-assembled into unloaded micelles in acidic or neutral buffer (protein, UniProt P02666 16-224, looked up)
Beta-casein: RELEELNVPGEIVESLSSSEESITRINKKIEKFQSEEQQQTEDELQDKIHPFAQTQSLVYPFPGPIPNSLPQNIPPLTQTPVVVPPFLQPEVMGVSKVKEAMAPKHKEMPFPKYPVEPFTESQSLTLTDVENLHLPLPLLQSWMHQPHQPLPPTVMFPPQSVLSLSQSKVLPVPQKAVPYPQRDMPIQAFLLYQEPVLGPVRGPFPIIV
modifications: self-assembled micelles
notes: bovine β-casein self-assembled into unloaded micelles in acidic or neutral buffer
With B1 as the molecule, how does the “Maximum micelle dimension (SAXS PDDF)” value ([1]; 20 mg/mL, pH 2.6, all temperatures 4-40 °C) read?
The value was 35-40 nm.

And the “Rg (from Guinier apr.)” value [1, 3]?
The value was 7.8 nm.

What about the “V, from a, b” value [1, 3] of the same molecule?
Its value is 2410 nm^3.

What about the “Micelle Dimensions: diameter” value ([1]; pH 2.6, 4-40 °C) of the same molecule?
The value was 25 nm in.

What about the “Micelle Shape” value ([1]; pH 2.6, 4 °C) of the same molecule?
Its value is “disc”.

And the Nagg ([1]; pH 2.6, 4 °C)?
Its Nagg is 8.

And the Nagg ([1]; pH 2.6, 4 °C, concentrations of 0.5 wt % and below)?
The Nagg was “approximately 2”.

What about the “Micelle Shape” value ([1]; pH 2.6, 16 °C) of the same molecule?
Its value is “disc”.

What about the Nagg ([1]; pH 2.6, 16 °C) of the same molecule?
Its Nagg is 10.

And the “Micelle Shape” value ([1]; pH 2.6, 25 °C)?
The value was “disc”.

What about the Nagg ([1]; pH 2.6, 25 °C) of the same molecule?
The Nagg was 11.

And the CMC ([1]; pH 2.6, 25 °C, by SAXS)?
Its CMC is 0.1-0.2 wt %.

And the “Micelle Shape” value ([1]; pH 2.6, 40 °C)?
The value was “disc”.

What about the Nagg ([1]; pH 2.6, 40 °C) of the same molecule?
The Nagg was 9.

What about the “Micellization relative cooperativity (MR)” value ([2]; lactic acid pH 2.6, 24 °C) of the same molecule?
The value was 0.14 mM.

And the “Heat of demicellization ΔHdemic” value ([2]; pH 2.6, 24 °C)?
Its value is no more than 17.9 kJ/mol.

What about the CMC ([2]; pH 2.6, 24 °C, by ITC) of the same molecule?
Its CMC is 1.89 mg/mL.

And the CMC ([2]; pH 2.6, 25 °C, by ITC)?
Its CMC is 0.19 wt %.

What about the CMC ([2]; pH 2.6, by ITC) of the same molecule?
Its CMC is 0.079 mM.

And the “Heat of demicellization ΔHdemic” value ([2]; pH 7.0, IS 0.1)?
Its value is -40.53 kJ/mol.
